Reference: article PMC11084278 (International Journal of Molecular Sciences, 2024)
Marks after values point to notes of the source that are not given here.

Experiments:
NLuc-CXCR3 [1] = biological target: T1, NLuc-CXCR3 (Homo sapiens, UniProt P49682); experiment: Multiplex NanoBRET binding, mixed NLuc-CXCR3 and NLuc-CXCR4 membranes, read at 520 nm (CXCL10-AZD488); settings: mixed (1:1) NLuc-CXCR3 and NLuc-CXCR4 membranes; both CXCL10-AZD488 and CXCL12-AZD647, 10 nM each
T1 construct: 5HT3a signal peptide (N); expressed in transfected cells; host or cells: HEK293T, transient; membrane preparation
T1 sequence (P49682 2-368 limits assumed): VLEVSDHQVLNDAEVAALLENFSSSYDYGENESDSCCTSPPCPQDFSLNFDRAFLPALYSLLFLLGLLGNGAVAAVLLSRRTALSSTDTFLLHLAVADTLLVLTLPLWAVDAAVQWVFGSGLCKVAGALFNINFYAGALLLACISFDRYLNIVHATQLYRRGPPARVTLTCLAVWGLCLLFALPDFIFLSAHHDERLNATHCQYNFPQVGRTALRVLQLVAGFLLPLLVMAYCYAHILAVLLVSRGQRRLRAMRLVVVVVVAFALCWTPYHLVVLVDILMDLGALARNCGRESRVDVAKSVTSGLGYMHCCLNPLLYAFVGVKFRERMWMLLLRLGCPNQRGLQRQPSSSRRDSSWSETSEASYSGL
Procedure: (§1) HEK293T cells (2 × 10^6) were seeded in 10 cm^2 culture dishes. After 24 h, the cells were transfected with 0.25 µg of plasmid DNA encoding human NLuc-ACKR3, NLuc-CXCR4 or NLuc-CXCR3, and 4.75 µg of pcDEF3 plasmid DNA using 30 µg of linear PEI. After two days, the cells were collected in PBS and centrifuged at 2700 rpm at 4 °C. Next, the cell pellet was resuspended in ice-cold membrane buffer (15 mM of Tris, 0.3 mM of EDTA, 2 mM of MgCl2, pH 7.4 at 4 °C) and homogenized by plunging the pestle using 10 strokes at 1100 rpm. The cell homogenates were exposed to two freeze and thaw cycles using liquid nitrogen and were centrifuged at 25,000 rpm. The pellet was resuspended in Tris-sucrose buffer (20 mM of Tris, 250 mM of Sucrose, pH 7.4 at 4 °C). Finally, cell membranes were homogenized using a 23-gauge needle, followed by snap-freezing with liquid nitrogen and then stored at −80 °C.
(§2) NanoBRET was measured after 1 h of incubation at room temperature, as described above.
For saturation binding experiments, the KD was obtained using one-site total and non-specific binding. For binding experiments, pIC50 values were obtained using a one-site pIC50 model. The equilibrium dissociation constants (Ki) of unlabeled ligands were subsequently calculated using the Cheng−Prusoff equation. […]

NLuc-CXCR3 [2] = biological target: T1, NLuc-CXCR3; experiment: NanoBRET competition binding versus CXCL10-AZD488 on NLuc-CXCR3 membranes only (520 nm)
Procedure: as §1, §2
(§3) For saturation binding experiments, the KD was obtained using one-site total and non-specific binding. For binding experiments, pIC50 values were obtained using a one-site pIC50 model. The equilibrium dissociation constants (Ki) of unlabeled ligands were subsequently calculated using the Cheng−Prusoff equation. (1) […] where [L] is the concentration of the labeled ligand and KD is the equilibrium dissociation constant of the labeled ligand.

NLuc-CXCR4 [3] = biological target: T2, NLuc-CXCR4 (Homo sapiens, UniProt P61073); experiment: Multiplex NanoBRET binding, mixed NLuc-CXCR3 and NLuc-CXCR4 membranes, read at 640 nm (CXCL12-AZD647); parameters: 5HT3a signal peptide (N); host or cells: HEK293T, transient; membrane preparation; settings: mixed (1:1) NLuc-CXCR3 and NLuc-CXCR4 membranes; both CXCL10-AZD488 and CXCL12-AZD647, 10 nM each
Procedure: as §1, with “After 24 h, the cells were transfected with 0.25 µg of plasmid DNA encoding human NLuc-ACKR3, NLuc-CXCR4 or NLuc-CXCR3, and 4.75 µg of pcDEF3 plasmid DNA using 30 µg of linear PEI.” left out
as §3

NLuc-ACKR3 [4] = biological target: NLuc-ACKR3 (Homo sapiens, UniProt P25106); experiment: NanoBRET competition binding versus AZDye-labeled CXCL12 on NLuc-ACKR3 membranes; parameters: 5HT3a signal peptide (N); host or cells: HEK293T, transient; membrane preparation
Procedure: as §1, with “After 24 h, the cells were transfected with 0.25 µg of plasmid DNA encoding human NLuc-ACKR3, NLuc-CXCR4 or NLuc-CXCR3, and 4.75 µg of pcDEF3 plasmid DNA using 30 µg of linear PEI.” left out
All experiments were analyzed using Graphpad Prism 9.0. For binding experiments, pIC50 values were obtained using a one-site pIC50 model using global fitting with shared non-specific binding values.
as §3

CXCR4 = CXCR4 (Homo sapiens, UniProt P61073); experiment: CXCR4-mediated inhibition of isoprenaline-induced intracellular cAMP (FRET-based EPAC sensor) in HEK293 cells; assay type: cell-based; settings: HEK293 cells stably expressing CXCR4 and EPAC sensor; 100 nM isoprenaline; mean ± SD
Procedure: Human embryonic kidney 293 cells stably co-expressing CXCR4 and the FRET-based EPAC sensor with mCerulean and mCitrine as a FRET pair were kindly provided by Dr. M. Zimmermann (Interax Biotech, Zurich, Switzerland), and were cultured in DMEM supplemented with 10% FBS and penicillin ([…]), streptomycin ([…]), zeocin (0.06 mg/mL) and G418 (0.6 mg/mL) at 37 °C with 5% CO2.
HEK293 cells stably expressing CXCR4 and a FRET-based EPAC sensor were seeded into a 96-well black plate (0.5 × 10^6/well). […] Fluorescence was measured using the following parameters: excitation at 430–15 nm, and emission at 530–20 and 480–20 nm using the CLARIOstar Plus (BMG Labtech, Ortenberg, Germany). The FRET ratio was calculated by dividing the signal of the acceptor at 530 nm by the donor signal at […].

NLuc-CXCR4 [5] = biological target: T2, NLuc-CXCR4; experiment: NanoBRET saturation binding to HEK293T membranes expressing NLuc-CXCR4; parameters: 5HT3a signal peptide (N); host or cells: HEK293T, transient; membrane preparation; settings: non-specific binding with 10 µM IT1t, mean ± SD
Procedure: as §1, with “After 24 h, the cells were transfected with 0.25 µg of plasmid DNA encoding human NLuc-ACKR3, NLuc-CXCR4 or NLuc-CXCR3, and 4.75 µg of pcDEF3 plasmid DNA using 30 µg of linear PEI.” left out
as §3

[6] = biological target: HA-tagged ACKR3 C-terminally fused to SmBit (UniProt P25106)
NLuc-CXCR4 [7] = biological target: T2, NLuc-CXCR4
NLuc-CXCR4 [8] = biological target: T2, NLuc-CXCR4; experiment: FRET or BRET; NanoBRET competition binding against CXCL12-AZD488 (0.3 nM on NLuc-ACKR3, 10 nM on NLuc-CXCR4 HEK293T membranes) with increasing unlabeled ligand; HBSS with 0.2% BSA; 1 h at room temperature; Ki by Cheng-Prusoff
NLuc-CXCR4 [9] = biological target: T2, NLuc-CXCR4; experiment: FRET or BRET; NanoBRET competition binding against CXCL12-AZD546 (0.3 nM on NLuc-ACKR3, 10 nM on NLuc-CXCR4 HEK293T membranes) with increasing unlabeled ligand; HBSS with 0.2% BSA; 1 h at room temperature; Ki by Cheng-Prusoff
NLuc-CXCR4 [10] = biological target: T2, NLuc-CXCR4; experiment: FRET or BRET; NanoBRET competition binding against CXCL12-AZD594 (0.3 nM on NLuc-ACKR3, 10 nM on NLuc-CXCR4 HEK293T membranes) with increasing unlabeled ligand; HBSS with 0.2% BSA; 1 h at room temperature; Ki by Cheng-Prusoff
NLuc-CXCR4 [11] = biological target: T2, NLuc-CXCR4; experiment: FRET or BRET; NanoBRET competition binding against CXCL12-AZD647 (0.3 nM on NLuc-ACKR3, 10 nM on NLuc-CXCR4 HEK293T membranes) with increasing unlabeled ligand; HBSS with 0.2% BSA; 1 h at room temperature; Ki by Cheng-Prusoff
NLuc-ACKR3 [12] = biological target: T3, NLuc-ACKR3 (human, UniProt P25106 1-362); experiment: FRET or BRET; NanoBRET competition binding against CXCL12-AZD488 (0.3 nM on NLuc-ACKR3, 10 nM on NLuc-CXCR4 HEK293T membranes) with increasing unlabeled ligand; HBSS with 0.2% BSA; 1 h at room temperature; Ki by Cheng-Prusoff; settings: one partner purified
T3 construct: ACKR3 (CXCR7), human; NLuc is preceded by the 5HT3a signal peptide and fused via a Gly-Ser linker (BamHI site) to ACKR3, in pcDNA3.1; also called CXCR7; source: HEK293T, transiently transfected, membrane preparation; not shown: NLuc, N-terminal, kept

NLuc-ACKR3 [13] = biological target: T3, NLuc-ACKR3; experiment: FRET or BRET; NanoBRET competition binding against CXCL12-AZD546 (0.3 nM on NLuc-ACKR3, 10 nM on NLuc-CXCR4 HEK293T membranes) with increasing unlabeled ligand; HBSS with 0.2% BSA; 1 h at room temperature; Ki by Cheng-Prusoff; settings: one partner purified
NLuc-ACKR3 [14] = biological target: T3, NLuc-ACKR3; experiment: FRET or BRET; NanoBRET competition binding against CXCL12-AZD594 (0.3 nM on NLuc-ACKR3, 10 nM on NLuc-CXCR4 HEK293T membranes) with increasing unlabeled ligand; HBSS with 0.2% BSA; 1 h at room temperature; Ki by Cheng-Prusoff; settings: one partner purified
NLuc-ACKR3 [15] = biological target: T3, NLuc-ACKR3; experiment: FRET or BRET; NanoBRET competition binding against CXCL12-AZD647 (0.3 nM on NLuc-ACKR3, 10 nM on NLuc-CXCR4 HEK293T membranes) with increasing unlabeled ligand; HBSS with 0.2% BSA; 1 h at room temperature; Ki by Cheng-Prusoff; settings: one partner purified
[16] = 0.3 nM probe, Cheng-Prusoff, mean ± SD

For CC1(C)CN2C(CSC(=NC3CCCCC3)NC3CCCCC3)=CSC2=N1 [IT1t], the “pKi, Multiplex at 520 nm” value (NLuc-CXCR3 [1]) was “no clear competition binding curve was detected”.

CCNC(=O)c1cnc(N2CCN(C3CCN(Cc4ccc(Cl)cc4)CC3)[C@@H](CC)C2)c(Cl)c1 [VUF11211] was tested, and the “pKi, CXCR3 Only at 520 nm” value (NLuc-CXCR3 [2]; 10 nM CXCL10-AZD488, NLuc-CXCR3 membranes only) was 8.8 ± 0.2, the “fold higher than the Ki from competition binding with [125I]-CXCL11” value (NLuc-CXCR3 [2]; comparison with ref 23) was 10 fold and the “fold lower than the Ki from competition binding with [3H]-VUF11211” value (NLuc-CXCR3 [2]; comparison with ref 23) was 1.5 fold. For the same molecule, the “pKi, Multiplex at 520 nm” value (NLuc-CXCR3 [1]) was 8.8 ± 0.1 and the “pKi, Multiplex at 640 nm” value (NLuc-CXCR4 [3]) was “no clear competition binding curve was detected”.

In the case of COc1cc(C(=O)N(CCC2CCCN2C)CC(C)=Cc2ccccc2F)cc(OC)c1OC (centres unmarked) [VUF15485], the “Binding affinity (pKi) for NLuc-ACKR3, probe CXCL12-AZD488” value (NLuc-ACKR3 [4]; [16]) is reported as 7.9 ± 0.1 ^b, the “Binding affinity (pKi) for NLuc-ACKR3, probe CXCL12-AZD546” value (NLuc-ACKR3 [4]; [16]) is reported as 7.9 ± 0.1 and the “Binding affinity (pKi) for NLuc-ACKR3, probe CXCL12-AZD594” value (NLuc-ACKR3 [4]; [16]) is reported as 8.1 ± 0.2. For the same molecule, the “Binding affinity (pKi) for NLuc-ACKR3, probe CXCL12-AZD647” value (NLuc-ACKR3 [4]; [16]) was 8.2 ± 0.1 and the “fold lower affinity for ACKR3 when tested in competition with CXCL12-AZD488” value (NLuc-ACKR3 [4]; compared with the other three probes) was 5 fold.

In the case of “CXCL12-AZD546: CXCL12 tagged at the C-terminus with fluorescent AZDye 546 by click chemistry”, the “cAMP by CXCR4 (pEC50)” value (CXCR4) is reported as 8.6 ± 0.3 and the “pKD for CXCR4” value (NLuc-CXCR4 [5]) is reported as 8.0 ± 0.0.

In the case of “CXCL12-AZD594: CXCL12 tagged at the C-terminus with fluorescent AZDye 594 by click chemistry”, the “cAMP by CXCR4 (pEC50)” value (CXCR4) is reported as 8.9 ± 0.2 and the “pKD for CXCR4” value (NLuc-CXCR4 [5]) is reported as 7.6 ± 0.1.

“CXCL12-AZD647: CXCL12 tagged at the C-terminus with fluorescent AZDye 647 by click chemistry” was tested, and the “pKD for CXCR4” value (NLuc-CXCR4 [5]) was 7.9 ± 0.1.

Work on “Human recombinant CXCL12 (unlabeled) (from UniProt P48061 22-93) (ligand)” yielded a pEC50 of β-arrestin2 recruitment to ACKR3 (NanoBiT complementation, HEK293T cells) [6] of 8, a pEC50 of inhibition of isoprenaline-induced cAMP (FRET-based EPAC sensor) in HEK293 cells stably expressing CXCR4 (not the NLuc fusion) (NLuc-CXCR4 [7]) of 9.7 and a pKi (NLuc-CXCR4 [8]) of 8.4. The pKi (NLuc-CXCR4 [9]) was 9, the pKi (NLuc-CXCR4 [10]) was 8.2 and the pKi (NLuc-CXCR4 [11]) was 8.4.

B1: CXCL11 (unlabeled) (ligand, UniProt O14625 22-94, looked up)
chain: FPMFKRGRCLCIGPGVKAVKVADIEKASIMYPSNNCDKIEVIITLKENKGQRCLNPKSKQARLIIKKVERKNF
notes: CXCL11, unlabeled chemokine
For B1, the pKi (NLuc-ACKR3 [12]) was 9.4, the pKi (NLuc-ACKR3 [13]) was 9.4 and the pKi (NLuc-ACKR3 [14]) was 9.5. For the same molecule, the pKi (NLuc-ACKR3 [15]) was 9.2.
